# Values of other authors as cited in patent US8450118B2, “Method for detecting binding interactions between membrane proteins and analytes in a homogenous assay” (Molecular Sensing, Inc., priority 2009, dated 2013).
# Target: T1, mouse B1 receptor (Mus musculus, UniProt Q61125)
# T1 sequence (Q61125 1-334): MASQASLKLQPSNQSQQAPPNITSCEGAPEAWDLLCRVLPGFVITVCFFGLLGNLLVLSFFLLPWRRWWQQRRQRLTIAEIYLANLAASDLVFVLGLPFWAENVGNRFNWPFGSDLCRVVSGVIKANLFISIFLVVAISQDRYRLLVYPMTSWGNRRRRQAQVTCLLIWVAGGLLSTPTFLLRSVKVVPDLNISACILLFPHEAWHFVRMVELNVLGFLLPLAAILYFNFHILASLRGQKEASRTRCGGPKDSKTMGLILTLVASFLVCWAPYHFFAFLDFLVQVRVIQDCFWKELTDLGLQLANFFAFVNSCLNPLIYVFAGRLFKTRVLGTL
substance,measurement,value
"BK(1-8): peptide generated by removal of the C-terminal arginine of bradykinin by carboxypeptidases; selective ligand at the B1 receptor (RPPGFSPF; Bradykinin; UniProt P01042 381-388, looked up, fragment)",fold higher affinity for BK(1-8) compared to Lys-BK(1-8),2-3 fold
